A short description of this data set: total protein half-life in vivo (active degradation + dilution); higher = more stable protein.
Setting [1] is: E. coli NCM3722 delta-clpP delta-lon delta-hslV, growth: N-lim chemostat, doubling time 6 h.
Setting [2] is: E. coli NCM3722 delta-clpP, growth: N-lim chemostat, doubling time 6 h.
The mark [3] stands for this setting: E. coli NCM3722 delta-hslV, growth: N-lim chemostat, doubling time 6 h.
Setting [4] is: E. coli NCM3722 delta-lon, growth: N-lim chemostat, doubling time 6 h.
[5] abbreviates: E. coli NCM3722 delta-smpB, growth: N-lim chemostat, doubling time 6 h.
Setting [6] is: wild type E. coli NCM3722, growth: C-lim chemostat, doubling time 3 h.
The mark [7] stands for this setting: wild type E. coli NCM3722, growth: C-lim chemostat, doubling time 6 h.
Where [8] appears, read: wild type E. coli NCM3722, growth: C-lim chemostat, doubling time 12 h.
The mark [9] stands for this setting: wild type E. coli NCM3722, growth: N-lim chemostat, doubling time 6 h.
The mark [10] stands for this setting: wild type E. coli NCM3722, growth: N-lim chemostat, doubling time 12 h.
The mark [11] stands for this setting: wild type E. coli NCM3722, growth: P-lim chemostat, doubling time 6 h.
Setting [12] is: wild type E. coli NCM3722, growth: P-lim chemostat, doubling time 12 h.

The values below come from the supplement of paper PMC11246515.

± gives the standard deviation of the averaged measurements.

In the case of “MLHTLHRSPWLTDFAALLRLLSEGDELLLLQDGVTAAVDGNRYLESLRNAPIKVYALNEDLIARGLTGQISNDIILIDYTDFVRLTVKHPSQMAW”, the “total protein half-life in vivo” value worked out at 5.27 ± 0.29 h under setting [1]; 5.7 h under setting [2]; 4.53 ± 0.13 h under setting [3]; 6.44 ± 1.6 h under setting [4]; 4.89 ± 0.16 h under setting [5]; 3.012 ± 0.0044 h under setting [6]. Also, the “total protein half-life in vivo” value was found to be 5.1 h under setting [7]; 13.4 ± 3 h under setting [8]; 4.39 ± 0.46 h under setting [9]; 8.26 h under setting [10]; 5.89 h under setting [11]; 11.3 ± 0.18 h under setting [12].

Regarding “MAEWSGEYISPYAEHGKKSEQVKKITVSIPLKVLKILTDERTRRQVNNLRHATNSELLCEAFLHAFTGQPLPDDADLRKERSDEIPEAAKEIMREMGINPETWEY [P0A8U6]”, the “total protein half-life in vivo” value by setting is: under setting [1], above 8 h; under setting [2], 5.7 h; under setting [3], 5.96 ± 0.098 h; under setting [4], 6.2 ± 0.13 h; under setting [5], 6.26 ± 0.61 h; under setting [6], 3.19 ± 0.061 h. Moreover, the “total protein half-life in vivo” value reads like this: under setting [7], 5.63 ± 0.29 h; under setting [8], 6.09 h; under setting [9], 4.87 ± 0.35 h; under setting [10], 10.7 ± 6.7 h; under setting [11], 4.35 ± 0.99 h; under setting [12], 12 ± 4.2 h.

Consider “MNDLFSLAGKNILITGSAQGIGFLLATGLGKYGAQIIINDITAERAELAVEKLHQEGIQAVAAPFNVTHKHEIDAAVEHIEKDIGPIDVLVNNAGIQRRHPFTEFPEQEWNDVIAVNQTAVFLVSQAVTRHMVERKAGKVINICSMQSELGRDTITPYAASKGAVKMLTRGMCVELARHNIQVNGIAPGYFKTEMTKALVEDEAFTAWLCKRTPAARWGDPQELIGAAVFLSSKASDFVNGHLLFVDGGMLVAV [P0A9P9]”, for which the “total protein half-life in vivo” value under setting [1] is 7.23 h; the “total protein half-life in vivo” value under setting [2] turned out to be 3.69 h; the “total protein half-life in vivo” value under setting [3] was 2.75 h; the “total protein half-life in vivo” value under setting [5] came to 2.46 h; the “total protein half-life in vivo” value under setting [6] turned out to be 2.53 ± 0.38 h; the “total protein half-life in vivo” value under setting [7] came out at 4.78 ± 0.49 h. The “total protein half-life in vivo” value turned out to be 7.912 ± 0.017 h under setting [8], 3.01 h under setting [9], 4.98 ± 0.91 h under setting [11] and 6.82 ± 0.6 h under setting [12].

“MAVSAKYDEFNHWWATEGDWVEEPNYRRNGMSGVQCVERNGKKLYVKRMTHHLFHSVRYPFGRPTIVREVAVIKELERAGVIVPKIVFGEAVKIEGEWRALLVTEDMAGFISIADWYAQHAVSPYSDEVRQAMLKAVALAFKKMHSINRQHGCCYVRHIYVKTEGNAEAGFLDLEKSRRRLRRDKAINHDFRQLEKYLEPIPKADWEQVKAYYYAM”: the “total protein half-life in vivo” value is, setting by setting: under setting [1], 5.26 ± 0.28 h; under setting [2], 1.09 h; under setting [3], 3.57 h; under setting [4], 1.15 ± 0.09 h; under setting [5], 0.534 h; under setting [9], 0.927 h. Also, the “total protein half-life in vivo” value under setting [11] worked out at 0.144 h.

With “MHSQIWVVSTLLISIVLIVLTIVKFKFHPFLALLLASFFVGTMMGMGPLDMVNAIESGIGGTLGFLAAVIGLGTILGKMMEVSGAAERIGLTLQRCRWLSVDVIMVLVGLICGITLFVEVGVVLLIPLAFSIAKKTNTSLLKLAIPLCTALMAVHCVVPPHPAALYVANKLGADIGSVIVYGLLVGLMASLIGGPLFLKFLGQRLPFKPVPTEFADLKVRDEKTLPSLGATLFTILLPIALMLVKTIAELNMARESGLYILVEFIGNPITAMFIAVFVAYYVLGIRQHMSMGTMLTHTENGFGSIANILLIIGAGGAFNAILKSSSLADTLAVILSNMHMHPILLAWLVALILHAAVGSATVAMMGATAIVAPMLPLYPDISPEIIAIAIGSGAIGCTIVTDSLFWLVKQYCGATLNETFKYYTTATFIASVVALAGTFLLSFII”, the “total protein half-life in vivo” value was found to be 4.91 h under setting [5], 5.8 h under setting [7], 11.9 h under setting [8] and 9.38 h under setting [10].

Turning to “MSNLLGPRDANGIPVPMTVDESIASMKASLLKKIKRSAYVYRVDCGGCNGCEIEIFATLSPLFDAERFGIKVVPSPRHADILLFTGAVTRAMRSPALRAWQSAPDPKICISYGACGNSGGIFHDLYCVWGGTDKIVPVDVYIPGCPPTPAATLYGFAMALGLLEQKIHARGPGELDEQPAEILHGDMVQPLRVKVDREARRLAGYRYGRQIADDYLTQLGQGEEQVARWLEAENDPRLNEIVSHLNHVVEEARIR”, the “total protein half-life in vivo” value under setting [1] stood at 5.31 h.

In the case of “MATIHVDGKEYEVNGADNLLEACLSLGLDIPYFCWHPALGSVGACRQCAVKQYQNAEDTRGRLVMSCMTPASDGTFISIDDEEAKQFRESVVEWLMTNHPHDCPVCEEGGNCHLQDMTVMTGHSFRRYRFTKRTHRNQDLGPFISHEMNRCIACYRCVRYYKDYADGTDLGVYGAHDNVYFGRPEDGTLESEFSGNLVEICPTGVFTDKTHSERYNRKWDMQFAPSICQQCSIGCNISPGERYGELRRIENRYNGTVNHYFLCDRGRFGYGYVNLKDRPRQPVQRRGDDFITLNAEQAMQGAADILRQSKKVIGIGSPRASVESNFALRELVGEENFYTGIAHGEQERLQLALKVLREGGIYTPALREIESYDAVLVLGEDVTQTGARVALAVRQAVKGKAREMAAAQKVADWQIAAILNIGQRAKHPLFVTNVDDTRLDDIAAWTYRAPVEDQARLGFAIAHALDNSAPAVDGIEPELQSKIDVIVQALAGAKKPLIISGTNAGSLEVIQAAANVAKALKGRGADVGITMIARSVNSMGLGIMGGGSLEEALTELETGRADAVVVLENDLHRHASAIRVNAALAKAPLVMVVDHQRTAIMENAHLVLSAASFAESDGTVINNEGRAQRFFQVYDPAYYDSKTVMLESWRWLHSLHSTLLSREVDWTQLDHVIDAVVAKIPELAGIKDAAPDATFRIRGQKLAREPHRYSGRTAMRANISVHEPRQPQDIDTMFTFSMEGNNQPTAHRSQVPFAWAPGWNSPQAWNKFQDEVGGKLRFGDPGVRLFETSENGLDYFTSVPARFQPQDGKWRIAPYYHLFGSDELSQRAPVFQSRMPQPYIKLNPADAAKLGVNAGTRVSFSYDGNTVTLPVEIAEGLTAGQVGLPMGMSGIAPVLAGAHLEDLKEAQQ”, the “total protein half-life in vivo” value was 6.02 ± 0.15 h under setting [1]; 5.98 ± 0.38 h under setting [2]; 6.1 ± 0.34 h under setting [3]; 5.92 ± 0.37 h under setting [4]; 5.61 ± 0.29 h under setting [5]; 3.14 ± 0.12 h under setting [6]. Besides, the “total protein half-life in vivo” value under setting [7] turned out to be 5.723 ± 0.011 h; the “total protein half-life in vivo” value under setting [8] was determined as 10.3 ± 0.23 h; the “total protein half-life in vivo” value under setting [9] stood at 5.63 ± 0.15 h; the “total protein half-life in vivo” value under setting [10] worked out at 11 ± 0.17 h; the “total protein half-life in vivo” value under setting [11] worked out at 5.72 ± 0.076 h; the “total protein half-life in vivo” value under setting [12] was determined as 10.25 ± 0.082 h.
